Reference: patent publication US20130236459A1 (MERRIMACK PHARMACEUTICALS, published 2013)
Changes are numbered by the printed parent chain. Where two headings read alike, the source gives them in different places. Blank lines part the entries; values can stand above or below the binder they belong to.

Assays:
Assay in all cases: cell-based or functional assay
[1] = molecular target: T1, ErbB3 (HER3), endogenous on human tumor cell lines (human, UniProt P21860 20-1342)
[2] = molecular target: T2, IGF-1R (receptor for insulin-like growth factor 1), endogenous on human tumor cell lines (human, UniProt P08069 31-1367)
T2 sequence (P08069 31-1367): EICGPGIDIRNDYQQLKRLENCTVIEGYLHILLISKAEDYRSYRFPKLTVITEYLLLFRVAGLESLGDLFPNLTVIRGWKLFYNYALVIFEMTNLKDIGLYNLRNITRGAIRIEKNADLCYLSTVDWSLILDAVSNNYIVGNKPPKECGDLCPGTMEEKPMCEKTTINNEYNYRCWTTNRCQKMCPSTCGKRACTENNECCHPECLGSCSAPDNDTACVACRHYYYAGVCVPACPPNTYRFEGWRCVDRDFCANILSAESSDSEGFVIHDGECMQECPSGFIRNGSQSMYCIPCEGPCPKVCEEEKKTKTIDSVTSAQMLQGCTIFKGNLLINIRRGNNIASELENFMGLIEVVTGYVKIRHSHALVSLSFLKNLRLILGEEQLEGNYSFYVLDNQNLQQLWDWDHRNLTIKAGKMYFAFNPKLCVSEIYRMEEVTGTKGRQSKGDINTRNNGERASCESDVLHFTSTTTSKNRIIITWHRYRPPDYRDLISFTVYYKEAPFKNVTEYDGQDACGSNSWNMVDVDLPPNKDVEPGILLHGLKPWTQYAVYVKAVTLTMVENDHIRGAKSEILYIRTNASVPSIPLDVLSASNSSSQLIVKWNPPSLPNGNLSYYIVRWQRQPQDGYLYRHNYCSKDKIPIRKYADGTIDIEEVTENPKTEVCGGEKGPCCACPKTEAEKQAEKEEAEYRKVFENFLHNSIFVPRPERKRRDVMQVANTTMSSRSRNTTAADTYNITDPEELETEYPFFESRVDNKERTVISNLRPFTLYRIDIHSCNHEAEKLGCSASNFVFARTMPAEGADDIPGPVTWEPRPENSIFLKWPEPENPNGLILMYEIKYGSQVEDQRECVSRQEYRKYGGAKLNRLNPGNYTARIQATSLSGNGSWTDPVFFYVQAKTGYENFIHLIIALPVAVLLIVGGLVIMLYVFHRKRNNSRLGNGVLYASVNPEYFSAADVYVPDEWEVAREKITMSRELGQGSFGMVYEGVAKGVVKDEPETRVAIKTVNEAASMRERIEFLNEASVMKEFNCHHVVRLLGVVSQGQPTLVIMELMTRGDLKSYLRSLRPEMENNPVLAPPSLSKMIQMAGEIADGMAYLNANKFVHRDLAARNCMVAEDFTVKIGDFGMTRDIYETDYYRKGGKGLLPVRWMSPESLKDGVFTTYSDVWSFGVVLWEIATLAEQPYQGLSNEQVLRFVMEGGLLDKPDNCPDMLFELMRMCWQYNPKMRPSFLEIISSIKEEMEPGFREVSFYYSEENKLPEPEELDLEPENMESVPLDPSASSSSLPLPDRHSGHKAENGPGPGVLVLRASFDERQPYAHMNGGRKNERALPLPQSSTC

[3] = molecular target: T1, ErbB3 (HER3), endogenous on human tumor …; remark: listed apart in the source
[4] = molecular target: T2, IGF-1R (receptor for insulin-like …); remark: listed apart in the source
[5] = molecular target: T2, IGF-1R (receptor for insulin-like …); remark: listed apart in the source
[6] = molecular target: T1, ErbB3 (HER3), endogenous on human tumor …; remark: listed apart in the source
[7] = molecular target: T2, IGF-1R (receptor for insulin-like …); remark: listed apart in the source

T1 sequence (P21860 20-1342 limits assumed): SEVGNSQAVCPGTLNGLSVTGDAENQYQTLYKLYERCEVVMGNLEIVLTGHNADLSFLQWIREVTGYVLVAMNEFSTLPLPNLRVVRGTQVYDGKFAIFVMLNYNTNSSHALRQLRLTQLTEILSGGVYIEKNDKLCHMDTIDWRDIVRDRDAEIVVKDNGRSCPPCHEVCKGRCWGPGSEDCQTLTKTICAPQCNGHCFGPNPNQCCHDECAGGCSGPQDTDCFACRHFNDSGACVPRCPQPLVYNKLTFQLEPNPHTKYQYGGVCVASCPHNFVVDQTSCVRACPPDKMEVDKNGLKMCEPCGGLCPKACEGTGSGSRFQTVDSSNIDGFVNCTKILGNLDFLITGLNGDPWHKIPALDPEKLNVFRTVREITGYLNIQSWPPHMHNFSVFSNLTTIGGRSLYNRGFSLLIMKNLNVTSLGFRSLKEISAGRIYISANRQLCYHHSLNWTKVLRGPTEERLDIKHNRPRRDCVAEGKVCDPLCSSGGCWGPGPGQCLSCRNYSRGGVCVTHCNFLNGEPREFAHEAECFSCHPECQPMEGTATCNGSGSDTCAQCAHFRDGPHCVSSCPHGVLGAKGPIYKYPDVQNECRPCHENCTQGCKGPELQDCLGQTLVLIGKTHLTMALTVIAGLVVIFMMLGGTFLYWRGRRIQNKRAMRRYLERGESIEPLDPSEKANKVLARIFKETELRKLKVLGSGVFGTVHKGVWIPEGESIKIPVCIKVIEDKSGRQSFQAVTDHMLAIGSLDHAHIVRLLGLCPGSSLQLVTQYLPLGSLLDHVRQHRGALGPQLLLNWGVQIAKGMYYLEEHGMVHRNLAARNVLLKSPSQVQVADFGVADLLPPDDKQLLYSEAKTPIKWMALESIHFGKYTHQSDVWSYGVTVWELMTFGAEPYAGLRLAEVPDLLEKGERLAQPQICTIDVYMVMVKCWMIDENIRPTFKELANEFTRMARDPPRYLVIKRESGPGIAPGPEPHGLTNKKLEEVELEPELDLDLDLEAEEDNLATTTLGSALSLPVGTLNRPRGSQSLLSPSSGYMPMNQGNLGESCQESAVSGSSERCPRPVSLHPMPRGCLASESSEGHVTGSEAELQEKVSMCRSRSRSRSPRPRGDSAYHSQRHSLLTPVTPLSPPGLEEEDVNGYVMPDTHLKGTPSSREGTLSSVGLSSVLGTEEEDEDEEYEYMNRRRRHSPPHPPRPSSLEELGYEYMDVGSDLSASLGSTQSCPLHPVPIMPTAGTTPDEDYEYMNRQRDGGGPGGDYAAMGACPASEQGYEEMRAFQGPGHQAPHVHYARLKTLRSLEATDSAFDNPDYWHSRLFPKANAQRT

B4: P4-G1-P6 (bispecific antibody, human IgG1, kappa)
heavy: not shown
light: DIQMTQSPSSLSASLGDRVTITCRASQGISSYLAWYQQKPGKAPKLLIYAKSTLQSGVPSRFSGSGSGTDFTLTISSLQPEDSATYYCQQYWTFPLTFGGGTKVEIKRTVAAPSVFIFPPSDEQLKSGTASVVCLLNNFYPREAKVQWKVDNALQSGNSQESVTEQDSKDSTYSLSSTLTLSKADYEKHKVYACEVTHQGLSSPVTKSFNRGEC
pErbB3 % Inhibition (BxPC-3) [1]: 95% | pErbB3 IC50 (BxPC-3) [1]: 3.9e-11 M (inferred) | pIGF1R % Inhibition (BxPC-3) [2]: 91% | pIGF1R IC50 (BxPC-3) [2]: 1.6e-10 M (inferred)

B7: M57-G1-C8 (bispecific antibody, human IgG1, kappa)
heavy: not shown
light: B4 light with M4L, K51R, L54R, D70E, F94W
pErbB3 % Inhibition (BxPC-3) [1]: 98% | pErbB3 IC50 (BxPC-3) [1]: 6.5e-11 M (inferred) | pIGF1R % Inhibition (BxPC-3) [2]: 93% | pIGF1R IC50 (BxPC-3) [2]: 2.5e-10 M (inferred)

B8: P4-G1-M1.3 (bispecific antibody, human IgG1, kappa)
heavy: not shown
light: B4 light
pErbB3 IC50 (BxPC-3) [3]: 5.3e-11 M (inferred) | pIGF1R IC50 (BxPC-3) [4]: 1.1e-09 M (inferred) | pErbB3 % Inhibition (BxPC-3) [1]: 94% | pErbB3 IC50 (BxPC-3) [1]: 5.5e-11 M (inferred) | pIGF1R % Inhibition (BxPC-3) [2]: 92% | pIGF1R IC50 (BxPC-3) [2]: 1.8e-10 M (inferred) | % IGF1R Downregulation (A549, 24 h) [5]: 72% | % IGF1R Downregulation (BxPC-3, 24 h) [5]: 71% | pAKT IC50 (BxPC-3, HRG 20 ng/ml) [6]: 3.97e-11 M | pAKT IC50 (BxPC-3, HRG 200 ng/ml) [6]: 4.09e-11 M | pErbB3 IC50 (BxPC-3, HRG 20 ng/ml) [6]: 3.12e-11 M | pErbB3 IC50 (BxPC-3, HRG 200 ng/ml) [6]: 2.72e-11 M | pAKT IC50 (BxPC-3, IGF1 40 ng/ml) [7]: 1.4e-10 M | pAKT IC50 (BxPC-3, IGF1 400 ng/ml) [7]: 2.1e-10 M | pIGF1R IC50 (BxPC-3, IGF1 40 ng/ml) [7]: 1.2e-10 M | pIGF1R IC50 (BxPC-3, IGF1 400 ng/ml) [7]: 9.9e-11 M

B10: M27-G1-M57 (bispecific antibody, human IgG1, lambda)
heavy: not shown
light: SSELTQDPAVSVALGQTVRITCQGDSLRSYYASWYQQKPGQAPVLVIYGKNNRPSGIPDRFSGSSSGNTASLTITGAQAEDEADYYCNSRDTPGDQWVFGGGTKVTVLGQPKAAPSVTLFPPSSEELQANKATLVCLVSDFYPGAVTVAWKADGSPVKVGVETTKPSKQSNNKYAASSYLSLTPEQWKSHRSYSCRVTHEGSTVEKTVAPAECS
pErbB3 % Inhibition (BxPC-3) [1]: 88% | pErbB3 IC50 (BxPC-3) [1]: 3.1e-10 M (inferred) | pIGF1R % Inhibition (BxPC-3) [2]: 83% | pIGF1R IC50 (BxPC-3) [2]: 8.1e-09 M (inferred)

B11: M7-G1-P4 (bispecific antibody, human IgG1, lambda)
heavy: not shown
light: B10 light with D95N, Q96K, L108I
pErbB3 IC50 (BxPC-3) [3]: 2.4e-11 M (inferred) | pIGF1R IC50 (BxPC-3) [4]: 2.4e-09 M (inferred) | pErbB3 % Inhibition (BxPC-3) [1]: 109% | pErbB3 IC50 (BxPC-3) [1]: 2.4e-11 M (inferred) | pIGF1R % Inhibition (BxPC-3) [2]: 93% | pIGF1R IC50 (BxPC-3) [2]: 2.4e-09 M (inferred)

B12: M27-G1-P4 (bispecific antibody, human IgG1, lambda)
heavy: not shown
light: B10 light
pErbB3 % Inhibition (BxPC-3) [1]: 106% | pErbB3 IC50 (BxPC-3) [1]: 1e-10 M (inferred) | pIGF1R % Inhibition (BxPC-3) [2]: 88% | pIGF1R IC50 (BxPC-3) [2]: 3e-09 M (inferred)

B13: M7-G1-M57 (bispecific antibody, human IgG1, lambda)
heavy: not shown
light: B10 light with D95N, Q96K, L108I
pErbB3 IC50 (BxPC-3) [3]: 5.2e-11 M (inferred) | pIGF1R IC50 (BxPC-3) [4]: 2.1e-08 M (inferred) | pErbB3 % Inhibition (BxPC-3) [1]: 124% | pErbB3 IC50 (BxPC-3) [1]: 5.2e-11 M (inferred) | pIGF1R % Inhibition (BxPC-3) [2]: 82% | pIGF1R IC50 (BxPC-3) [2]: 2.1e-08 M (inferred)

B16: M27-G1-M78 (bispecific antibody, human IgG1, lambda)
heavy: not shown
light: B10 light
pErbB3 % Inhibition (BxPC-3) [1]: 107% | pErbB3 IC50 (BxPC-3) [1]: 1.2e-10 M (inferred) | pIGF1R % Inhibition (BxPC-3) [2]: 87% | pIGF1R IC50 (BxPC-3) [2]: 1.4e-09 M (inferred)

B17: M27/M7-G1-M78 (bispecific antibody, human IgG1, lambda)
heavy: not shown
light: B10 light with D95N, Q96K, L108I
pErbB3 % Inhibition (BxPC-3) [1]: 140% | pErbB3 IC50 (BxPC-3) [1]: 1.1e-10 M (inferred) | pIGF1R % Inhibition (BxPC-3) [2]: 91% | pIGF1R IC50 (BxPC-3) [2]: 1e-09 M (inferred)

B18: M27/M7-G1-M57 (bispecific antibody, human IgG1, lambda)
heavy: not shown
light: B10 light with D95N, Q96K, L108I
pErbB3 % Inhibition (BxPC-3) [1]: 179% | pErbB3 IC50 (BxPC-3) [1]: 1.5e-10 M (inferred) | pIGF1R % Inhibition (BxPC-3) [2]: 91% | pIGF1R IC50 (BxPC-3) [2]: 7.5e-09 M (inferred)

B19: M27/M7-G1-P4 (bispecific antibody, human IgG1, lambda)
heavy: not shown
light: B10 light with D95N, Q96K, L108I
pErbB3 % Inhibition (BxPC-3) [1]: 111% | pErbB3 IC50 (BxPC-3) [1]: 4e-11 M (inferred) | pIGF1R % Inhibition (BxPC-3) [2]: 99% | pIGF1R IC50 (BxPC-3) [2]: 1.3e-08 M (inferred)

Second part, the binder after the results:

pErbB3 % Inhibition (BxPC-3) [1]: 99% | pErbB3 IC50 (BxPC-3) [1]: 1.4e-10 M (inferred) | pIGF1R % Inhibition (BxPC-3) [2]: 94% | pIGF1R IC50 (BxPC-3) [2]: 4.1e-10 M (inferred)
B1: M57-G1-M1.3 (bispecific antibody, human IgG1, kappa)
heavy: not shown
light: B4 light with M4L, K51R, L54R, D70E, F94W

pErbB3 % Inhibition (BxPC-3) [1]: 98% | pErbB3 IC50 (BxPC-3) [1]: 2.3e-10 M (inferred) | pIGF1R % Inhibition (BxPC-3) [2]: 96% | pIGF1R IC50 (BxPC-3) [2]: 6.8e-10 M (inferred)
B2: M78-G1-C8 (bispecific antibody, human IgG1, kappa)
heavy: not shown
light: B4 light with K51S, L54R, A84G, T93A

pErbB3 % Inhibition (BxPC-3) [1]: 99% | pErbB3 IC50 (BxPC-3) [1]: 1.4e-10 M (inferred) | pIGF1R % Inhibition (BxPC-3) [2]: 97% | pIGF1R IC50 (BxPC-3) [2]: 5e-10 M (inferred)
B3: M78-G1-M1.3 (bispecific antibody, human IgG1, kappa)
heavy: not shown
light: B4 light with K51S, L54R, A84G, T93A

pErbB3 % Inhibition (BxPC-3) [1]: 98% | pErbB3 IC50 (BxPC-3) [1]: 7.9e-11 M (inferred) | pIGF1R % Inhibition (BxPC-3) [2]: 92% | pIGF1R IC50 (BxPC-3) [2]: 2.5e-10 M (inferred)
B5: M57-G1-P6 (bispecific antibody, human IgG1, kappa)
heavy: not shown
light: B4 light with M4L, K51R, L54R, D70E, F94W

pErbB3 % Inhibition (BxPC-3) [1]: 100% | pErbB3 IC50 (BxPC-3) [1]: 1.4e-10 M (inferred) | pIGF1R % Inhibition (BxPC-3) [2]: 95% | pIGF1R IC50 (BxPC-3) [2]: 4.2e-10 M (inferred)
B6: M78-G1-P6 (bispecific antibody, human IgG1, kappa)
heavy: not shown
light: B4 light with K51S, L54R, A84G, T93A

pErbB3 IC50 (BxPC-3) [3]: 1e-11 M (inferred) | pIGF1R IC50 (BxPC-3) [4]: 1.4e-09 M (inferred) | pErbB3 % Inhibition (BxPC-3) [1]: 115% | pErbB3 IC50 (BxPC-3) [1]: 8e-11 M (inferred) | pIGF1R % Inhibition (BxPC-3) [2]: 86% | pIGF1R IC50 (BxPC-3) [2]: 3.5e-09 M (inferred)
B9: B60-G1-M78 (bispecific antibody, human IgG1, lambda)
heavy: not shown
light: B10 light with T92W, D95N

pErbB3 IC50 (BxPC-3) [3]: 2.3e-11 M (inferred) | pIGF1R IC50 (BxPC-3) [4]: 4.4e-09 M (inferred) | pErbB3 % Inhibition (BxPC-3) [1]: 162% | pErbB3 IC50 (BxPC-3) [1]: 1.2e-09 M (inferred) | pIGF1R % Inhibition (BxPC-3) [2]: 85% | pIGF1R IC50 (BxPC-3) [2]: 1e-08 M (inferred)
B14: B60-G1-M57 (bispecific antibody, human IgG1, lambda)
heavy: not shown
light: B10 light with T92W, D95N

pErbB3 IC50 (BxPC-3) [3]: ~2.4e-14 M (inferred) | pIGF1R IC50 (BxPC-3) [4]: 2.2e-08 M (inferred) | pErbB3 % Inhibition (BxPC-3) [1]: 99% | pErbB3 IC50 (BxPC-3) [1]: 4e-11 M (inferred) | pIGF1R % Inhibition (BxPC-3) [2]: 88% | pIGF1R IC50 (BxPC-3) [2]: 4.4e-09 M (inferred)
B15: B60-G1-P4 (bispecific antibody, human IgG1, lambda)
heavy: not shown
light: B10 light with T92W, D95N
